Non-standard residues stand in square brackets, D forms with d. No end group written: not given here.
How the values were obtained:
[1] = target: T1, fibrinogen (Homo sapiens, UniProt P02671+P02675+P02679); assay: Purification of fibrinogen from plasma on HWQ resin column (Example 3); format: binding
T1 construct: from tissue; host or cells: human plasma
T1 sequence (P02671 20-629 limits assumed): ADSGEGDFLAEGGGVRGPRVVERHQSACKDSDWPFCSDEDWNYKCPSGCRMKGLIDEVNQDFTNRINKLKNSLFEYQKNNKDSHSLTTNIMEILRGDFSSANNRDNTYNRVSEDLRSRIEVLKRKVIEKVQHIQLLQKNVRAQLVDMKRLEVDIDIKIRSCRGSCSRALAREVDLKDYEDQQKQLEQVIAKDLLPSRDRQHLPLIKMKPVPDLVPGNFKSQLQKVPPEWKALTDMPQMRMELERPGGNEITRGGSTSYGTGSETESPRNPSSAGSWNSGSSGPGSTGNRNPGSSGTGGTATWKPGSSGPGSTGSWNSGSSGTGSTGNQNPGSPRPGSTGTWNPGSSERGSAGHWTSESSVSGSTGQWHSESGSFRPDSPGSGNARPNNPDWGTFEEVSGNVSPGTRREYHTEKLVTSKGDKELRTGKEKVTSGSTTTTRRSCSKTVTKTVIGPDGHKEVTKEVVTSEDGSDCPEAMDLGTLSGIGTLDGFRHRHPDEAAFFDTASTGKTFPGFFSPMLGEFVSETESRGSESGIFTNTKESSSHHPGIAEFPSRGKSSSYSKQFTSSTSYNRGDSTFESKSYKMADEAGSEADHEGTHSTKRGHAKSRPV
T1 sequence (P02675 31-491): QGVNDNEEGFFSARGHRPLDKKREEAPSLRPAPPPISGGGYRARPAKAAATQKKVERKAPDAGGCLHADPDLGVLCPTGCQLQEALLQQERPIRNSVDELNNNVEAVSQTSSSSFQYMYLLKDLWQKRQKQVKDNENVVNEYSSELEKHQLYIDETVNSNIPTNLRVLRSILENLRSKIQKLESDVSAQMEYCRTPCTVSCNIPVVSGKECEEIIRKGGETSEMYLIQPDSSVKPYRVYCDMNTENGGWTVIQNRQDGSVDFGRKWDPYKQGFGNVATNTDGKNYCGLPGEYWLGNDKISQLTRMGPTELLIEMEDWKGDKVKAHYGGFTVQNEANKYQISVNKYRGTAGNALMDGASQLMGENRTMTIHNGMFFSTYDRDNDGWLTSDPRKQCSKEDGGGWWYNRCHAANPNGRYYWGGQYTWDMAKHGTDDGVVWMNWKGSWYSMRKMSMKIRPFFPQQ
T1 sequence (P02679 27-433 limits assumed): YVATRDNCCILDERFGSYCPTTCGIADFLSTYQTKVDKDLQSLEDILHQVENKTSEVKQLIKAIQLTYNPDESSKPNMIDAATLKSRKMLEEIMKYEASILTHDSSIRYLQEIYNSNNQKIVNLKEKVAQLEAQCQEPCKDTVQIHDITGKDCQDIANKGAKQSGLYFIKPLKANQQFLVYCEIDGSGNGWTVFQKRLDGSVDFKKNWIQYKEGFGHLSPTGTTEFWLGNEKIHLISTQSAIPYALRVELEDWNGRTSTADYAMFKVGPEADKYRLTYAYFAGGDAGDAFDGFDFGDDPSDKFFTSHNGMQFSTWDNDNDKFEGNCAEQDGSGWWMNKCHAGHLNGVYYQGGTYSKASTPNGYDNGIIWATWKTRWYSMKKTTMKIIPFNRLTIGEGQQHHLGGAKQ
Method: Five milliliters of plasma was applied at a flow rate of 0.2 ml/min. onto a 0.8 ml column (RT=4.0 min) containing a resin displaying the HWQ ligand, and was equilibrated with 0.14 M NaCl, 0.020M sodium citrate, pH 7.0 (EQ buffer). After washing the resin with EQ buffer and 0.5 M NaCl, pH 7.0, to baseline, the bound fibrinogen was eluted with 2.0 M NaCl, pH 7.0 or 0.3 M glycine, 0.5M NaCl, pH 9.0. All of the wash and elution buffers contained 0.020 M sodium citrate. […] However, dynamic resin capacities of 5–8 mg were reached. The resin was regenerated with 2 M guanidine-HCl, 2% Sarkosyl, 30% ethanol and 70% ethanol/2% acetic acid, followed by storage in 20% methanol.

[2] = target: T2, Apo-A1 lipoprotein (Homo sapiens, UniProt P02647); assay: Apo-A1 lipoprotein purification from fibrinogen-depleted plasma on peptide resin column (Example 4); format: binding
T2 construct: from tissue; host or cells: human plasma (whole or fibrinogen-depleted)
T2 sequence (P02647 25-267 limits assumed): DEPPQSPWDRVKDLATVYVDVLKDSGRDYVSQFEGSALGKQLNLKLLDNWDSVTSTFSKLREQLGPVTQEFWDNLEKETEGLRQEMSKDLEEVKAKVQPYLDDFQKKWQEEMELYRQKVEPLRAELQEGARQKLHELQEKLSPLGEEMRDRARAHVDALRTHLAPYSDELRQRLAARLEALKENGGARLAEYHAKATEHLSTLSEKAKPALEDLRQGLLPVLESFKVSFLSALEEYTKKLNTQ
Method: Apo-A1 lipoprotein purification was accomplished with D-WWLHIN (SEQ ID NO: 33) peptides and several analogs. Indeed, about 100% Apo-A1 lipoprotein depletion from plasma was repeatedly obtained with D-WWLHAN (SEQ ID NO: 56) and D-WWLHIN (SEQ ID NO: […]). Fourteen milliliters of fibrinogen-depleted plasma was loaded onto a 2.3 ml column (CF=0.785 cm^2) at 0.4 ml/min. (LV=30 cm/H; RT=5.8) that had been equilibrated with 0.14 M NaCl, 0.020 M sodium citrate, pH 7.0 (EQ buffer). After the column was washed with EQ buffer to baseline, Apo-A1 lipoprotein was eluted with 2.0 M NaCl, 1% Tween-20, 0.020M sodium citrate, pH 7.0. The column was regenerated with 2.0 M guanidine-HCl, 2% Sarkosyl, and 2% acetic acid and stored in 20% methanol.

[3] = target: T3, API (Homo sapiens, UniProt P01009); assay: Preparation of fibrinogen- and Apo-A1-depleted plasma: API in flow-through (Example 5); format: binding; details: after chromatography on the named resin
T3 construct: from tissue; host or cells: human plasma (whole, fibrinogen-depleted or F1-Apo-depleted)
T3 sequence (P01009 25-418): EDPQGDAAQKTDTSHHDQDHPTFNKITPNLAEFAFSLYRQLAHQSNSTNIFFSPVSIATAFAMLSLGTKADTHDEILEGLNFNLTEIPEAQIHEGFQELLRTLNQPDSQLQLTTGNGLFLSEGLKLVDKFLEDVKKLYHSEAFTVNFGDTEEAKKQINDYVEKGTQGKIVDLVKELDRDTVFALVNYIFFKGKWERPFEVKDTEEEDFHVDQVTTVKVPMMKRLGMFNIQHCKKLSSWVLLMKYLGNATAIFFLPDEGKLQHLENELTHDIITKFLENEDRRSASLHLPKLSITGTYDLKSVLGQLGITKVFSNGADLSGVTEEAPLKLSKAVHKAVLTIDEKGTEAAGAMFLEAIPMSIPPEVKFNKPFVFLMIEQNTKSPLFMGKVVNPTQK
Method: (§1) Toyopearl AF Amino 650M resin displaying a peptide consisting essentially of the amino acid sequence D-ARQFDF (SEQ ID NO: 20) was suspended for 2 hours in 20% methanol. After washing with distilled water, the resin was packed into an Omni column (column volume (CV)=10 ml; diameter 1.5 cm; CF 1.77 cm^2) and equilibrated in 0.14 M NaCl, 0.020 M sodium citrate, pH 7.0 (EQ buffer). Fifty milliliters of filtered plasma (0.80 mm, Nalgene CN, Cat. No. 380-0080; 0.45 μm, Corning CA, Cat. No. 431155; 0.20 μm, Nalgene PES, Cat. No. 165-0020) were loaded on the Omni columns at a linear velocity (LV) of 50 cm/H (flow rate (FR)=1.5 ml/min; residence time (RT)=6.7 minutes). The flow-through was collected in column volumes. After pooling fibrinogen-depleted plasma (50 ml), the flow-through was loaded onto a column comprising a resin displaying an Apo-A1 lipoprotein-binding ligand (D-WWLHIN (SEQ ID NO: 33)), as described below. The fibrinogen-binding column was washed with 12 CVs of EQ buffer and the fibrinogen eluted with 10 CVs of 0.3 M glycine, 0.5 M NaCl, pH 9.0. The column was regenerated with 10 CVs of 2% Sarkosyl, pH 8.0, followed by 10 CVs of 2.0 M guanidine (GuHCl). After washing with 5 CVs of distilled water, the column was further cleaned with 6 CVs of 30% ethanol and 6 CVs of 70% ethanol containing 2% acetic acid. […]

[4] = system: Apo-A1 lipoprotein; assay: Preparation of fibrinogen- and Apo-A1-depleted plasma: Apo-A1 in flow-through (Example 5); format: binding, human; details: nephelometry and SDS-PAGE analysis
Method: as §1

[5] = system: paraoxonase; details: after 1 hour incubation with resin at 37° C.; rabbit serum diluted 1/10
Method: Paraoxonase binding to a WWLHAN (SEQ ID NO: 56)-displaying resin was evaluated according to the following protocol. Rabbit serum diluted 1/10 times with PBS ([…]) was incubated in a rotating Eppendorf tube with 50 μl of D-WWLHAN (SEQ ID NO: 56)-displaying resin suspension containing approximately […] of resin. The resin was previously soaked in 20% methanol overnight and washed 3 times with PBS to remove the methanol traces and resuspended in paraoxonase assay buffer (20 mM Tris pH 8.0, 150 mM NaCl, and 2 mM CaCl2). After 1 hour incubation at 37° C., resin beads were precipitated by centrifugation at 8000 g for 1 min in an Eppendorf microcentrifuge. Supernatants were transferred into separate Eppendorf tubes and resin bead pellets were resuspended in equal volumes of paraoxonase assay buffer. Paraoxonase activity of resin bead suspensions and supernatant solutions was measured. In particular, 100 μl of paraoxonase assay buffer containing 100 μm of DEPFMU (a fluorogenic substrate for paraoxonase detection) was mixed with […] of supernatant or 10 μl of resin bead suspension, or the original serum solution in a standard microtiter plate well. After thorough mixing, the plate solution was incubated for 20 minutes at 37° C. Hydrolysis of DEPFMU was quantified by measuring the fluorescence level at […] using a commercial fluorometer. The level of fluorescence correlates with the level of 6,8-difluoro-4-methylumbelliferyl released from DEPFMU as a result of paraoxonase-mediated hydrolysis. The actual amount of 6,8-difluoro-4-methylumbelliferyl released in the assay can be calibrated with a known amount of 6,8-difluoro-4-methylumbelliferyl.
Several different D-WWLHIN (SEQ ID NO: 33) analogs were screened for the ability to bind to paraoxonase under the conditions described in Example 7. For this experiment, the following resins were tested: WWLHAN (SEQ ID NO: 56), AWLHIN (SEQ ID NO: 59), WALHIN (SEQ ID NO: 60), WWAHIN (SEQ ID NO: 61), WWLHIA (SEQ ID NO: 63), WYLHIN (SEQ ID NO: 35), WWLFIN (SEQ ID NO: 36), and na1′WLHIN (SEQ ID NO: 40).

[6] = system: paraoxonase; details: without use of detergent
Description: Paraoxonase, or any plasma protein, can be recovered from the isolated or purified peptide of the invention coupled to a bead (i.e., a support) by several different approaches, including washing beads with buffers with high and low ionic strength, high and low pH, or buffers comprising up to 50% of ethylene glycol and different detergents.

Substance: HWQ
- elution of bound fibrinogen ([1]; 2.0 M NaCl, pH 7.0 or 0.3 M glycine, 0.5M NaCl, pH 9.0): Complete elution of fibrinogen was not achieved
- dynamic resin capacities ([1]; 5 ml plasma on 0.8 ml column): 5 to 8 mg

Substance: WWLHAN ([dW]WLHAN; not fully specified (residues 2, 3, 4, 5, 6)) [D-WWLHAN]
- Apo-A1 lipoprotein depletion from plasma [2]: about 100%
- API recovered in the flow-through [3]: 90–95%
- Apo-A1 lipoprotein detection after treating with the resin [4]: no Apo-A1 lipoprotein could be detected
- original paraoxonase activity remaining in the serum [5]: less than 4%
- paraoxonase activity eluted from the beads into the supernatant [6]: No paraoxonase activity was eluted
